From paper PMC4278837, “A Cyclic Peptidic Serine Protease Inhibitor: Increasing Affinity by Increasing Peptide Flexibility” (PLoS ONE, 2014) come the findings set out here.

Sequences and labels used below:
B1: mupain-1 (peptide)
peptide: CPAYSRYLDC
modifications: disulfide 1-10 (inferred)
notes: Synthesised on a resin with Rink amide linker; source: synthetic peptide (solid-phase synthesis, HPLC purified)
B2: Mupain-1 D9A (peptide)
peptide: CPAYSRYLAC
modifications: disulfide 1-10 (inferred)
notes: mupain-1 with D9A; Rink amide linker resin; C-terminal amide surmised; source: synthetic peptide (solid-phase synthesis, HPLC purified)

Bridge positions count the residues as written; N and C are the ends. Square brackets hold non-standard residues; d marks the D form. Ends that are not written are not given here. Ala(1-amidino-4-piperidyl) = N=C(N)N1CCC(C[C@H](N)C(=O)O)CC1; Phe(4-guanidino) = N=C(N)Nc1ccc(C[C@H](N)C(=O)O)cc1

The target of one test is T1, muPA-V213T (murine).
T1 construct: site directed mutant of full length muPA; numbers count on: chymotrypsin numbering; Two-chain form after plasmin; source: HEK293 6E, transfected; treated with plasmin
As to the kind of experiment: enzyme inhibition (steady state, chromogenic substrate S-2444); about 2 nM enzyme (purified or conditioned medium of transfected cells) pre-incubated 15 min with varied peptide in HBS (10 mM HEPES pH 7.4, 140 mM NaCl) with 0.1% BSA at 37°C; substrate about KM; fit for competitive inhibition; highest peptide concentration 400 µM.
Details: not given
What is called Ki is a measure of affinity in units of concentration, obtained from inhibition or displacement. Molecule CPAYS[Phe(4-guanidino)]YLDC (disulfide 1-10) [mupain-1-12] returned a Ki of 86 nM.

CPAYS[Ala(1-amidino-4-piperidyl)]YLDC (disulfide 1-10; not fully specified) [mupain-1-16] gave an inhibition constant (Ki) of 13 nM.

As to CPAYS[Ala(1-amidino-4-piperidyl)]YLAC (disulfide 1-10; not fully specified) [Mupain-1-16 D9A], affinity was put at a Ki of 14 nM.

For a further test, the target named is T2, muPA-S190A (murine).
T2 construct: site directed mutant of full length muPA; numbers count on: chymotrypsin numbering; Two-chain form after plasmin; source: HEK293 6E, transfected; treated with plasmin
Described as above.
Details: not given
Molecule CPAYS[Phe(4-guanidino)]YLDC (disulfide 1-10) [mupain-1-12] registered a Ki of 2300 nM.

Molecule CPAYS[Ala(1-amidino-4-piperidyl)]YLDC (disulfide 1-10; not fully specified) [mupain-1-16] registered an inhibitory constant (Ki) of 352 nM.

For CPAYS[Ala(1-amidino-4-piperidyl)]YLAC (disulfide 1-10; not fully specified) [Mupain-1-16 D9A], the affinity corresponds to a Ki of 529 nM.

The target in another test is huPA-H99Y-R35A (human). The description is as above.
Details: not given
Molecule CPAYS[Phe(4-guanidino)]YLDC (disulfide 1-10) [mupain-1-12] yielded an inhibition constant (Ki) of 3260 nM.

CPAYS[Ala(1-amidino-4-piperidyl)]YLDC (disulfide 1-10; not fully specified) [mupain-1-16] displayed a Ki of 2500 nM.

The molecule CPAYS[Ala(1-amidino-4-piperidyl)]YLAC (disulfide 1-10; not fully specified) [Mupain-1-16 D9A] yielded an inhibition constant Ki of 174 nM.

The target in a further test is T3, huPA-H99Y (full length human urokinase-type plasminogen activator with H99Y) (human). Described as above.
Details: not given
Molecule CPAYS[Ala(1-amidino-4-piperidyl)]YLAC (disulfide 1-10; not fully specified) [Mupain-1-16 D9A] came in with an inhibition constant (Ki) of 309 nM.

In a further test the target is huPA-H99Y-K143A (human). The description is as above.
Details: not given
CPAYS[Phe(4-guanidino)]YLDC (disulfide 1-10) [mupain-1-12] registered a Ki of 2140 nM.

With CPAYS[Ala(1-amidino-4-piperidyl)]YLDC (disulfide 1-10; not fully specified) [mupain-1-16], the Ki amounted to 1130 nM.

Molecule CPAYS[Ala(1-amidino-4-piperidyl)]YLAC (disulfide 1-10; not fully specified) [Mupain-1-16 D9A] came in with a Ki of 188 nM.

In the next test the target is huPA-H99Y-Q192A (human). The description is as above.
Details: not given
For CPAYS[Phe(4-guanidino)]YLDC (disulfide 1-10) [mupain-1-12], the affinity, expressed as Ki, was 2350 nM.

Molecule CPAYS[Ala(1-amidino-4-piperidyl)]YLDC (disulfide 1-10; not fully specified) [mupain-1-16] displayed an inhibition constant (Ki) of 2710 nM.

Take CPAYS[Ala(1-amidino-4-piperidyl)]YLAC (disulfide 1-10; not fully specified) [Mupain-1-16 D9A]: the affinity, expressed as Ki, was 438 nM.

The target of another test is huPA-H99Y-V41A (human). The test is described as above.
Details: not given
With CPAYS[Phe(4-guanidino)]YLDC (disulfide 1-10) [mupain-1-12], affinity was put at a Ki of 1600 nM.

As for CPAYS[Ala(1-amidino-4-piperidyl)]YLDC (disulfide 1-10; not fully specified) [mupain-1-16], the inhibition constant (Ki) amounted to 1950 nM.

In turn, CPAYS[Ala(1-amidino-4-piperidyl)]YLAC (disulfide 1-10; not fully specified) [Mupain-1-16 D9A] came in with an inhibition constant (Ki) of 480 nM.

The target of the next test is T4, muPA-K143A (murine).
T4 construct: site directed mutant of full length muPA; numbers count on: chymotrypsin numbering; Two-chain form after plasmin; source: HEK293 6E, transfected; treated with plasmin
Described as above.
Details: not given
For CPAYS[Phe(4-guanidino)]YLDC (disulfide 1-10) [mupain-1-12], the inhibition constant Ki was 1000 nM.

CPAYS[Ala(1-amidino-4-piperidyl)]YLDC (disulfide 1-10; not fully specified) [mupain-1-16] gave a Ki of 130 nM.

As for CPAYS[Ala(1-amidino-4-piperidyl)]YLAC (disulfide 1-10; not fully specified) [Mupain-1-16 D9A], the affinity, expressed as Ki, was 100 nM.

The target of another test is T5, muPA-Y99A (murine).
T5 construct: site directed mutant of full length muPA; numbers count on: chymotrypsin numbering; Two-chain form after plasmin; source: HEK293 6E, transfected; treated with plasmin
Described as above.
Details: not given
The molecule CPAYS[Phe(4-guanidino)]YLDC (disulfide 1-10) [mupain-1-12] gave a Ki of 5200 nM.

In the case of CPAYS[Ala(1-amidino-4-piperidyl)]YLDC (disulfide 1-10; not fully specified) [mupain-1-16], the affinity, expressed as Ki, was 1240 nM.

With CPAYS[Ala(1-amidino-4-piperidyl)]YLAC (disulfide 1-10; not fully specified) [Mupain-1-16 D9A], the affinity corresponds to a Ki of 1360 nM.

The target in the next test is T6, muPA-K41A (murine).
T6 construct: site directed mutant of full length muPA; numbers count on: chymotrypsin numbering; Two-chain form after plasmin; source: HEK293 6E, transfected; treated with plasmin
The description is as above.
Details: not given
Regarding CPAYS[Phe(4-guanidino)]YLDC (disulfide 1-10) [mupain-1-12], the affinity, expressed as Ki, was 1720 nM.

In the case of CPAYS[Ala(1-amidino-4-piperidyl)]YLDC (disulfide 1-10; not fully specified) [mupain-1-16], the Ki was 300 nM.

CPAYS[Ala(1-amidino-4-piperidyl)]YLAC (disulfide 1-10; not fully specified) [Mupain-1-16 D9A] came in with an inhibition constant (Ki) of 14 nM.

The target in a further test is T7, murine urokinase-type plasminogen activator (muPA) wild type (murine, UniProt P06869 21-433).
T7 construct: cDNA encoding full length muPA; Two-chain form after plasmin; also called muPA wt; muPA-wt; source: HEK293 6E, transfected; treated with plasmin
T7 sequence (P06869 21-433): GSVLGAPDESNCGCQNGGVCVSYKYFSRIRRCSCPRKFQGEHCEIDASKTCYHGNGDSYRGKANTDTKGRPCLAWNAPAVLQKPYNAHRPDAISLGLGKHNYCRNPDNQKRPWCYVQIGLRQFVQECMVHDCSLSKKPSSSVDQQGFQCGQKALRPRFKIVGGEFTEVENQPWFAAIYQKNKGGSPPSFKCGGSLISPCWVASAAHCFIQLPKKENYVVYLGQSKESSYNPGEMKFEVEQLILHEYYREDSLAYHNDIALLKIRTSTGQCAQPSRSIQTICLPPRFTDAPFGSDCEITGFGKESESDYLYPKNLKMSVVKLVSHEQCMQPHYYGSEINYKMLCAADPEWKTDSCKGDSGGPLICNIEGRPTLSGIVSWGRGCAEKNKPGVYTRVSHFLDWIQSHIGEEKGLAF
Described as above.
Details: not given
Take CPAYS[Ala(1-amidino-4-piperidyl)]YLAC (disulfide 1-10; not fully specified) [Mupain-1-16 D9A]: the Ki is 76 nM.

Another test deals with recombinant catalytic domain of huPA-H99Y (residues 159-411) (human, UniProt P00749 179-431). As to the kind of experiment: ITC; MicroCal ITC200; peptide injected into 5-50 µM huPA-H99Y catalytic domain; 20 mM sodium phosphate pH 7.4, 140 mM NaCl, 25°C; one-binding-site model. The conditions noted are these: both partners purified. On the technique in general: In ITC the heat of successive injections is recorded.
As usually defined, the Kd is the equilibrium constant for the complex coming apart. A word on the stoichiometry N: it is the number of molecules, sites or subunits per partner or assembly. Take CPAYS[Phe(4-guanidino)]YLDC (disulfide 1-10) [mupain-1-12]: the Kd came out at 400 nM, the dH was -10.5 kcal/mol and the “stoichiometry N” value is 0.85.

As to CPAYS[Ala(1-amidino-4-piperidyl)]YLDC (disulfide 1-10; not fully specified) [mupain-1-16], the dissociation constant Kd worked out at 380 nM, the dH was -7.93 kcal/mol and the “stoichiometry N” value is 0.87.

CPAYS[Ala(1-amidino-4-piperidyl)]YLAC (disulfide 1-10; not fully specified) [Mupain-1-16 D9A]: the dissociation constant (Kd) came out at 134 nM, the dH is -11.1 kcal/mol and the “stoichiometry N” value is 0.88.

The target in another test is T3, huPA-H99Y (full length human …). As to the kind of experiment: SPR; Biacore T200; uPA variant amine-coupled to a CM5 chip (about 500 RU); peptides injected in HBS with 0.1% BSA, 30 µL/min, 25°C, pH 7.4; 1:1 kinetic fit; KD = koff/kon. As to conditions: both partners purified. On the technique in general: Surface plasmon resonance follows binding to a sensor surface in real time, without labels.
The koff is a measure of how fast the partners let go of each other. A low value points to a long-lived complex. Broadly, the kon is the rate constant with which the complex forms. In the case of CPAYS[Phe(4-guanidino)]YLDC (disulfide 1-10) [mupain-1-12], the Kd was 1210 nM, the koff is 0.246 s⁻¹ and the kon is 206000 M⁻¹ s⁻¹.

The molecule CPAYS[Ala(1-amidino-4-piperidyl)]YLDC (disulfide 1-10; not fully specified) [mupain-1-16] registered a dissociation constant Kd of 844 nM, a dissociation rate constant (koff) of 0.0893 s⁻¹ and a kon of 107000 M⁻¹ s⁻¹.

As to CPAYS[Ala(1-amidino-4-piperidyl)]YLAC (disulfide 1-10; not fully specified) [Mupain-1-16 D9A], the Kd is 71.8 nM, the off-rate constant (koff) turned out to be 0.0333 s⁻¹ and the kon is 465000 M⁻¹ s⁻¹.

A further test concerns the target T7, murine urokinase-type plasminogen …. The description is as above. The conditions noted are these: both partners purified.
CPAYS[Phe(4-guanidino)]YLDC (disulfide 1-10) [mupain-1-12] returned a Kd of 138 nM, an off-rate (koff) of 0.0192 s⁻¹ and an on-rate constant (kon) of 156000 M⁻¹ s⁻¹.

CPAYS[Ala(1-amidino-4-piperidyl)]YLDC (disulfide 1-10; not fully specified) [mupain-1-16] showed a Kd of 89.4 nM, an off-rate constant (koff) of 0.00671 s⁻¹ and a kon of 89800 M⁻¹ s⁻¹.

CPAYS[Ala(1-amidino-4-piperidyl)]YLAC (disulfide 1-10; not fully specified) [Mupain-1-16 D9A]: binding was put at a Kd of 21.3 nM, the off-rate constant (koff) was found to be 0.0122 s⁻¹ and the on-rate constant (kon) came out at 579000 M⁻¹ s⁻¹.

Consider B1, for which the Kd worked out at 398 nM, the koff was 0.0364 s⁻¹ and the association rate constant (kon) amounted to 91400 M⁻¹ s⁻¹.

B2: the affinity, expressed as Kd, was 417 nM; the koff worked out at 0.0401 s⁻¹; the kon was found to be 98500 M⁻¹ s⁻¹.
